The results in this text go back to the supplement of paper PMC9170038.

The series deals with MS2 coat protein. In words: apparent KD of MS2 coat protein; designed switch direction (-1 OFF switch, 1 ON switch): -1; higher = weaker reporter binding. In outline:
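Stalled E. coli RNA polymerase transcribed designed RNA switches on Illumina chips, which were then titrated with SNAP-549-labelled MS2 coat protein, doubling from 0.7 or 1.5 nM to 3 µM. Steps lasted from 0.8–1.5 h at the lowest concentration to 10–20 min at the highest. The apparent KD is each design's median over clusters of curve-fitted normalised fluorescence.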

Setting [1] is: input ligand: microRNA oligo, concentration not stated.
[2] abbreviates: Eterna round: R95, input ligand: microRNA oligo, concentration not stated.
Setting [3] is: Eterna round: R95, input ligand: FMN 200 uM.
Where [4] appears, read: Eterna round: R95, input ligand: none.

Turning to “UCACGGGACUGAGGAUAUACAUCAACAAUGGUUGUAGAAGGCAGAAGGUUGAAUCAUAUACAAAACAUGAGGAUCACCCAUGUA [JR_ExcNG1_Sub032] (Eterna round: R96, puzzle: Exclusion NG 1)”, the “apparent KD of MS2 coat protein” value came out at 23 nM (input ligand: FMN 200 uM), 23.8 nM under setting [1] and 26.2 nM (input ligand: none).
Take “UCACGGGACUGAGGAUAUACAUGAACUAUUUUUGUAGAAGGCAGAAUGUUAGAUUAUACACUAAACAUGAGGAUCACCCAUGUU [JR_ExcNG1_Sub024] (Eterna round: R96, puzzle: Exclusion NG 1)”: under setting [1], the “apparent KD of MS2 coat protein” value came to 15.1 nM.
Take “UCACGGGACUGAGGAUAUACAUGAAUUAUUUUUGUAGAAGGCAGAAUGUUAGAUUAUACACUAUACAUGAGGAUCACCCAUGUU [JR_ExcNG1_Sub023] (Eterna round: R96, puzzle: Exclusion NG 1)”: the “apparent KD of MS2 coat protein” value runs as follows: (input ligand: FMN 200 uM) 16.1 nM; under setting [1], 20.5 nM; (input ligand: none) 19.7 nM.
Regarding “UCAGGUGCAGGAUAUACAUGAGGAUCACCCAUGUAGAUCAACCAGCGAUAGCUGGAAUGUAGAAGGGCACCUGA [E3/5-D2] (Eterna round: R97, puzzle: Exclusion 3)”, the “apparent KD of MS2 coat protein” value (input ligand: FMN 200 uM) was found to be 100 nM and the “apparent KD of MS2 coat protein” value (input ligand: none) stood at 19.7 nM.
As for “UCAGGUGCAGGAUAUACAUGAGGAUCACCCAUGUGGUCACGUGACGAUAGUCACGAAUGUAGAAGGGCACCUGA [E3/3-D1] (Eterna round: R97, puzzle: Exclusion 3)”, the “apparent KD of MS2 coat protein” value is, setting by setting: (input ligand: FMN 200 uM) 60.1 nM; (input ligand: none) 958 nM.
Consider “UCAGUGUUAGGAUAUCGAGCAAGUUGAAUAUUUGUCUGUAUCGAGAAGGGACAUGAGGAUCACCCAUGUGAGGC [Eternabot (L1) Solution 65] (Eterna round: R97, puzzle: Exclusion 4)”, for which the “apparent KD of MS2 coat protein” value runs as follows: (input ligand: FMN 200 uM) 245 nM; (input ligand: none) 69.9 nM.
As to “UCAGUUAUGCGAGGAUAUCGACCUUUCCUCUUAACAUGAGGAUCACCCAUGUGCUAAUCCUUCAACGAGAAGGCGCUCAAACUC [JR_ExcNG2_Sub070] (Eterna round: R96, puzzle: Exclusion NG 2)”, the “apparent KD of MS2 coat protein” value is, setting by setting: (input ligand: FMN 200 uM) 260 nM; under setting [1], 170 nM; (input ligand: none) 209 nM.
Turning to “UCAUACGUUGAGGAUAUGUCAGUUAGAAUAUUUACAGAAGGCGAUACAUGAGGAUCACCCAUGUUUAUGGGCAU [Ex-6 Malc#5] (puzzle: Exclusion 6)”, under setting [2], the “apparent KD of MS2 coat protein” value worked out at 173 nM.
For the sequence “UCAUACGUUGAGGAUAUGUCAGUUAGUAUAUUUACAGAAGGCGAUACAUGAGGAUCACCCAUGUUUAUGGGCAU [Ex-6 Malc#4] (puzzle: Exclusion 6)”, the “apparent KD of MS2 coat protein” value under setting [2] was determined as 225 nM.
Take “UCAUGGGAGCGAGGAUAUAGCCCAUGUGAAGAACUAGAAGGCGCAGACAUGAGGAUCACCCAUGUGUUCAUGAGGAGGUGGACA (Eterna round: R96, puzzle: Exclusion NG 1)”: the “apparent KD of MS2 coat protein” value runs as follows: (input ligand: FMN 200 uM) 215 nM; under setting [1], 82.5 nM; (input ligand: none) 83.4 nM.
For the sequence “UCAUGGUAGCAGGAUAUGCUUGUUUUUUUUUUUGCAGAAGGGCUUACAUGAGGAUCACCCAUGUGUUAGGUCUA [JR_E6_Sub067] (puzzle: Exclusion 6)”, the “apparent KD of MS2 coat protein” value under setting [2] came out at 27.6 nM.
In the case of “UCCAGGCGAGGAUAUACAAAGAUUUUUUCGUUUUGUCUCGAACAUGAGGAUCACCCAUGUAGAAGGUGCUUCUG [JR_Ex2_Sub012] (Eterna round: R97, puzzle: Exclusion 2)”, the “apparent KD of MS2 coat protein” value (input ligand: FMN 200 uM) turned out to be 149 nM and the “apparent KD of MS2 coat protein” value (input ligand: none) is 115 nM.
The matching figures for “UCCGUGUCAGGAUAUGCUAGCGCAAAGUUGCCCGCGCUGUAGCAGAAGGGACAUGAGGAUCACCCAUGUCUACA [Exclusion 4 (Mod of Nando's EX4 C.10 cleaner dot)] (Eterna round: R97, puzzle: Exclusion 4)”: 70.7 nM and 20.4 nM.
In the case of “UCCUAACAUGAGGAUCACCCAUGUGAGGAUAUGAUACUAUGUACUUCGGUACAUAGUAUCAGAAGGCACAUCCU [Ex1-3: 8] (puzzle: Exclusion 1)”, the “apparent KD of MS2 coat protein” value under setting [2] came to 17.5 nM.
With “UCCUCACAUGAGGAUCACCCAUGUCAGGAUAUACCCAUCCAGCGAAAUUAAAGCUGUAGUAGAAGGGACAUGCA [Raertele] (Eterna round: R97, puzzle: Exclusion 1)”, the “apparent KD of MS2 coat protein” value was 40.4 nM (input ligand: FMN 200 uM) and 20.1 nM (input ligand: none).
In the case of “UCCUGACAUGAGGAUCACCCAUGUAAGGAUAUUAAAACGACUGAACAACUCAGCGGUAUAAGAAGGUACAUGUA [EX1 A.10] (Eterna round: R97, puzzle: Exclusion 1)”, the “apparent KD of MS2 coat protein” value was found to be 12 nM (input ligand: FMN 200 uM) and 14.4 nM (input ligand: none).
With “UCCUUACAUGAGGAUCACCCAUGUCAGGAUAUCUCCUCACUGCGCUUGCGCAGUGGAUAGAGAAGGGACGGGCU [JL ViennaUCT Aner mod 9] (puzzle: Exclusion 1)”, the “apparent KD of MS2 coat protein” value was determined as 32.3 nM under setting [3], 27.1 nM under setting [2] and 32.8 nM under setting [4].
On to “UCCUUACAUGAGGAUCACCCAUGUCAGGAUAUCUCGGGCGGCUGAGGACCAGCCGCCCAGAGAAGGGACGAGGA [Dixeinis] (puzzle: Exclusion 1)”, for which the “apparent KD of MS2 coat protein” value runs as follows: under setting [3], 38.6 nM; under setting [2], 23.1 nM; under setting [4], 31.3 nM.
Consider “UCCUUGUUAGGAUAUUGCCUGUGGGCUAAUCUGAAUACAGGUAAGAAGGGACAUGAGGAUCACCCAUGUGACAA [Eternabot (Original) Solution 32] (Eterna round: R97, puzzle: Exclusion 4)”, for which the “apparent KD of MS2 coat protein” value (input ligand: FMN 200 uM) is 39.3 nM and the “apparent KD of MS2 coat protein” value (input ligand: none) came to 28.8 nM.
Take “UCGACCGGAGGAUAUCACGUAAAGUACAUGAGGAUCACCCAUGUGUGAUGACUCGAGUCGUGAGAAGGCCGAUAUG [Larausbeer] (puzzle: Exclusion 5)”: the “apparent KD of MS2 coat protein” value under setting [2] amounted to 65.8 nM.
On to “UCGAGUGCUGAGGAUAUCUGCGAGUAAAGCUCAAGAGAAGGCAGUACAUGAGGAUCACCCAUGUGGAGCCUGUG [EX6 B.27] (Eterna round: R97, puzzle: Exclusion 6)”, for which the “apparent KD of MS2 coat protein” value (input ligand: FMN 200 uM) amounted to 86.7 nM and the “apparent KD of MS2 coat protein” value (input ligand: none) stood at 21.6 nM.
As for “UCGAGUGGUUAGGAUAUCAUUGGUGCAUAUCAUUGAGAAGGAACUACAUGAGGAUCACCCAUGUGGCAGUGAUA [Abezaso] (Eterna round: R96, puzzle: Exclusion 6)”, the “apparent KD of MS2 coat protein” value is, setting by setting: (input ligand: FMN 200 uM) 152 nM; under setting [1], 26.4 nM; (input ligand: none) 31.9 nM.
Take “UCGAGUGGUUAGGAUAUCAUUGGUGCAUAUCAUUGAGAAGGAACUACAUGAGGAUCACCCAUGUGGCAGUGAUA [Abezaso] (puzzle: Exclusion 6)”: the “apparent KD of MS2 coat protein” value under setting [2] is 23.9 nM.
On to “UCGAUGUAAGGAUAUCGUGCAAGUUUCAAAAGAGGCUUGUGCGAGAAGGUACAUGAGGAUCACCCAUGUAGGUU [Omei Ex4 B7] (Eterna round: R97, puzzle: Exclusion 4)”, for which the “apparent KD of MS2 coat protein” value reads like this: (input ligand: FMN 200 uM) 207 nM; (input ligand: none) 75.6 nM.
Consider “UCGCUCCGUGUAGGAUAUCGCCGUACCACUCGGCGAGAAGGACAUGAGGAUCACCCAUGUAUGUUAUUAUCACGUGUGGCGCGC [Design 52] (Eterna round: R96, puzzle: Exclusion NG 1)”, for which the “apparent KD of MS2 coat protein” value was 33.5 nM (input ligand: FMN 200 uM), 19 nM under setting [1] and 18.7 nM (input ligand: none).
The corresponding values for “UCGCUCCGUGUAGGAUAUCGCCGUACGAUGCGGCGAGAAGGACAUGAGGAUCACCCAUGUAUGUUAUUAUCACGCGUGGCGCAA [Design 62] (Eterna round: R96, puzzle: Exclusion NG 1)” are 21.3 nM, 11.3 nM and 16.5 nM.
In the case of “UCGCUCCGUGUAGGAUAUCGCCGUUCUAUUCGGCGAGAAGGACAUGAGGAUCACCCAUGUAUGUUAUUAUCACGCGUGGCGCAA [Design 58] (Eterna round: R96, puzzle: Exclusion NG 1)”, the “apparent KD of MS2 coat protein” value under setting [1] is 12.5 nM.
Take “UCGCUGCGAGGAUAUACAUGAGGAUCACCCAUGUACGGGUCCGGGUUUGAGUUGAUGAGUAGAAGGCGCAGUGA [JL Laongeedie mod 13] (puzzle: Exclusion 3)”: the “apparent KD of MS2 coat protein” value under setting [2] was determined as 79.2 nM.
Turning to “UCGCUGCGAGGAUAUACAUGAGGAUCACCCAUGUACGGGUCCGGGUUUUCGUCCAUUAGUAGAAGGCGCAGUGA [JL Laongeedie mod 1] (puzzle: Exclusion 3)”, the “apparent KD of MS2 coat protein” value under setting [2] was 136 nM.
Regarding “UCGCUGCGAGGAUAUACGUGCGCGCGCUCGCGUGCGCGCGUACAUGAGGAUCACCCAUGUAGAAGGCGCGCUGC [Apr-15 SS2-4] (puzzle: Exclusion 2)”, under setting [2], the “apparent KD of MS2 coat protein” value was determined as 13.4 nM.
Take “UCGCUGCGAGGAUAUACGUUUGCGCGCUUUCGUUUGCGCGUACAUGAGGAUCACCCAUGUAGAAGGCGCGCCGC [Apr-15 SS2-8] (puzzle: Exclusion 2)”: under setting [2], the “apparent KD of MS2 coat protein” value was found to be 13.2 nM.
As for “UCGGAUAGAGGAUAUACAUGAGGAUCACCCAUGUGGUCAAGCGGGUACGCCCAGCGAGGUAGAAGGCUAUCCGG [Eternabot (L1) Solution 16] (Eterna round: R97, puzzle: Exclusion 3)”, the “apparent KD of MS2 coat protein” value was found to be 407 nM (input ligand: FMN 200 uM) and 136 nM (input ligand: none).
In the case of “UCGGCGCGAGGAUAUACGUUUGCGCGUUUUCGUUUUUGCGUACAUGAGGAUCACCCAUGUAGAAGGCGCGCCGC [Apr-15 SS2-16] (puzzle: Exclusion 2)”, the “apparent KD of MS2 coat protein” value under setting [2] stood at 11.4 nM.
Turning to “UCGGCGCGAGGAUAUGCGGCUGGUGCUUCGGGCCCUCGCGUACAUGAGGAUCACCCAUGUAGAAGGCGCGCCGC [Apr-15 SS2-43] (puzzle: Exclusion 2)”, the “apparent KD of MS2 coat protein” value under setting [2] was 20.5 nM.
Same read-out and setting: then “UCGGCGCGAGGAUAUGCGGCUUGUGCUUCGGGCCCUCGCGUACAUGAGGAUCACCCAUGUAGAAGGCGCGCCGC [Apr-15 SS2-44] (puzzle: Exclusion 2)”, with 53.8 nM.
